Laboratory results taken from patent US7732209.
pKd: −log10 of the molar value.

Key:
Experiment in all cases: EMSA
[1] = target: T1, Mos-1 transposase (Tnp), rabbit reticulocyte TnT, phosphorylated (Drosophila mauritiana) (UniProt Q7JQ07); conditions: single Kd; Scatchard; 5 mM MgCl2, 20 mM Tris pH 9, ice
T1 sequence: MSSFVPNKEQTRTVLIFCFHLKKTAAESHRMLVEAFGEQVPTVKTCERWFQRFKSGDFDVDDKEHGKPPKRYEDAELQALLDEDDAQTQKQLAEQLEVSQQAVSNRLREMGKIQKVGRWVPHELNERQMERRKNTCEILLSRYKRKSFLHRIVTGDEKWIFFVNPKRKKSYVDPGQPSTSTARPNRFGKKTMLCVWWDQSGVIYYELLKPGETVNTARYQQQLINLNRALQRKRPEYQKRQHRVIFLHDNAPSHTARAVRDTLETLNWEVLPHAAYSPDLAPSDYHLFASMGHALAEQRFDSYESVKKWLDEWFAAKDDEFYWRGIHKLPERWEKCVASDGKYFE

[2] = target: T2, MBP-Tnp dephosphorylated with CIP (Drosophila mauritiana) (UniProt Q7JQ07); conditions: Scatchard, 5 mM MgCl2, 20 mM Tris pH 9, ice
T2 sequence: T1 sequence

[3] = target: T3, MBP-Tnp (Mos-1 transposase, phosphorylated, insect cells) (Drosophila mauritiana) (UniProt Q7JQ07); conditions: single Kd; Scatchard; 5 mM MgCl2, 20 mM Tris pH 9, ice
T3 sequence: T1 sequence

[4] = target: T4, Mos-1 transposase in vitro translated, dephosphorylated with CIP (Drosophila mauritiana) (UniProt Q7JQ07); conditions: Scatchard, 5 mM MgCl2, 20 mM Tris pH 9, ice
T4 sequence: T1 sequence

[5] = target: T5, Mos-1 mariner transposase (Tnp), produced in bacteria (Drosophila mauritiana) (UniProt Q7JQ07); conditions: CITED (publication submitted), cited from earlier work
T5 sequence: T1 sequence

Substance: Mos-1 ITR 3' (EcoRI/XbaI fragment of pBS(3'))
- pKd [1]: 7.13
- pKd ([2]; Kd1, second Kd (Kd2) 24.69 nM): 9.18
- pKd ([2]; Kd2 (second site)): 7.61
- pKd [3]: 7.41
- pKd ([4]; Kd1, second Kd (Kd2) 15.5 nM): 8.89
- pKd ([4]; Kd2 (second site)): 7.81
- pKd ([5]; Kd1, specific ITR 3' binding, Scatchard): 9.22
- pKd ([5]; Kd2, ITR bound as integration target): 8.00
